Laboratory results reported in US12006368 (SURROZEN OPERATING, dated 2024).

B1: 002S-F03 (VHH)
VHH: AVQLVESGGGLVQAGGPLRLSCAASGRTSSSYAMGWFRQAPGKEREFVAAISWSGGSTYYADSVKGRFTISRDNAKNTVYLQMDSPIPEDTAVYYCAAGPIARWYRGDMDYWGKGTLVTVSS
B2: 002S-E02 (VHH)
VHH: QVQLVESGGGLVQPGGSLRLSCAASGFTFREYAMTWVRQSPGKRLEWVSGISRDGGRTSYSDSLKGRFTISRDNAKNTLYLQMNNLTPEDTAVYYCAPRVLVTAPSGGMDYWGKGTQVTVSS
B3: 001S-A04 mutant VHG10A (Fab, V domains shown)
VH: EVQLVQSGAEVKKPGASVKVSCKASGYTFTSYGISWVRQAPGQGLEWMGWISAYNGNTNYAQKLQGRVTMTTDTSTSTAYMELRSLRSDDTAVYYCASSKEKATYYYAMDVWGQGTTVTVSS
VL: QAVVLQEPSLSVSPGGTVTLTCGLSSGSVSTNYYPSWYQQTPGQAPRTLIYYTNTRSSDVPERFSGSIVGNKAALTITGAQPDDESVYFCLLYLGRGIWVFGGGTKLTVLG
B4: 001S-A04 mutant VHK2A (Fab, V domains shown)
VH: EVQLVQSGAEVKKPGASVKVSCKASGYTFTSYGISWVRQAPGQGLEWMGWISAYNGNTNYAQKLQGRVTMTTDTSTSTAYMELRSLRSDDTAVYYCASSAEKATYYYGMDVWGQGTTVTVSS
VL: QAVVLQEPSLSVSPGGTVTLTCGLSSGSVSTNYYPSWYQQTPGQAPRTLIYYTNTRSSDVPERFSGSIVGNKAALTITGAQPDDESVYFCLLYLGRGIWVFGGGTKLTVLG
B5: 001S-A04 mutant VHK4A (Fab, V domains shown)
VH: EVQLVQSGAEVKKPGASVKVSCKASGYTFTSYGISWVRQAPGQGLEWMGWISAYNGNTNYAQKLQGRVTMTTDTSTSTAYMELRSLRSDDTAVYYCASSKEAATYYYGMDVWGQGTTVTVSS
VL: QAVVLQEPSLSVSPGGTVTLTCGLSSGSVSTNYYPSWYQQTPGQAPRTLIYYTNTRSSDVPERFSGSIVGNKAALTITGAQPDDESVYFCLLYLGRGIWVFGGGTKLTVLG
B6: 001S-A04 mutant VHV13A (Fab, V domains shown)
VH: EVQLVQSGAEVKKPGASVKVSCKASGYTFTSYGISWVRQAPGQGLEWMGWISAYNGNTNYAQKLQGRVTMTTDTSTSTAYMELRSLRSDDTAVYYCASSKEKATYYYGMDAWGQGTTVTVSS
VL: QAVVLQEPSLSVSPGGTVTLTCGLSSGSVSTNYYPSWYQQTPGQAPRTLIYYTNTRSSDVPERFSGSIVGNKAALTITGAQPDDESVYFCLLYLGRGIWVFGGGTKLTVLG
B7: 001S-A04 mutant VLG5A (Fab, V domains shown)
VH: EVQLVQSGAEVKKPGASVKVSCKASGYTFTSYGISWVRQAPGQGLEWMGWISAYNGNTNYAQKLQGRVTMTTDTSTSTAYMELRSLRSDDTAVYYCASSKEKATYYYGMDVWGQGTTVTVSS
VL: QAVVLQEPSLSVSPGGTVTLTCGLSSGSVSTNYYPSWYQQTPGQAPRTLIYYTNTRSSDVPERFSGSIVGNKAALTITGAQPDDESVYFCLLYLARGIWVFGGGTKLTVLG
B8: 001S-A04 mutant VLG7A (Fab, V domains shown)
VH: EVQLVQSGAEVKKPGASVKVSCKASGYTFTSYGISWVRQAPGQGLEWMGWISAYNGNTNYAQKLQGRVTMTTDTSTSTAYMELRSLRSDDTAVYYCASSKEKATYYYGMDVWGQGTTVTVSS
VL: QAVVLQEPSLSVSPGGTVTLTCGLSSGSVSTNYYPSWYQQTPGQAPRTLIYYTNTRSSDVPERFSGSIVGNKAALTITGAQPDDESVYFCLLYLGRAIWVFGGGTKLTVLG
B9: 001S-A04 mutant VLI8A (Fab, V domains shown)
VH: EVQLVQSGAEVKKPGASVKVSCKASGYTFTSYGISWVRQAPGQGLEWMGWISAYNGNTNYAQKLQGRVTMTTDTSTSTAYMELRSLRSDDTAVYYCASSKEKATYYYGMDVWGQGTTVTVSS
VL: QAVVLQEPSLSVSPGGTVTLTCGLSSGSVSTNYYPSWYQQTPGQAPRTLIYYTNTRSSDVPERFSGSIVGNKAALTITGAQPDDESVYFCLLYLGRGAWVFGGGTKLTVLG
B10: 001S-A04 mutant VLL1A (Fab, V domains shown)
VH: EVQLVQSGAEVKKPGASVKVSCKASGYTFTSYGISWVRQAPGQGLEWMGWISAYNGNTNYAQKLQGRVTMTTDTSTSTAYMELRSLRSDDTAVYYCASSKEKATYYYGMDVWGQGTTVTVSS
VL: QAVVLQEPSLSVSPGGTVTLTCGLSSGSVSTNYYPSWYQQTPGQAPRTLIYYTNTRSSDVPERFSGSIVGNKAALTITGAQPDDESVYFCALYLGRGIWVFGGGTKLTVLG
B11: 001S-A04 mutant VLL2A (Fab, V domains shown)
VH: EVQLVQSGAEVKKPGASVKVSCKASGYTFTSYGISWVRQAPGQGLEWMGWISAYNGNTNYAQKLQGRVTMTTDTSTSTAYMELRSLRSDDTAVYYCASSKEKATYYYGMDVWGQGTTVTVSS
VL: QAVVLQEPSLSVSPGGTVTLTCGLSSGSVSTNYYPSWYQQTPGQAPRTLIYYTNTRSSDVPERFSGSIVGNKAALTITGAQPDDESVYFCLAYLGRGIWVFGGGTKLTVLG
B12: 001S-A04 mutant VLL4A (Fab, V domains shown)
VH: EVQLVQSGAEVKKPGASVKVSCKASGYTFTSYGISWVRQAPGQGLEWMGWISAYNGNTNYAQKLQGRVTMTTDTSTSTAYMELRSLRSDDTAVYYCASSKEKATYYYGMDVWGQGTTVTVSS
VL: QAVVLQEPSLSVSPGGTVTLTCGLSSGSVSTNYYPSWYQQTPGQAPRTLIYYTNTRSSDVPERFSGSIVGNKAALTITGAQPDDESVYFCLLYAGRGIWVFGGGTKLTVLG
B13: 001S-A04 mutant VLR6A (Fab, V domains shown)
VH: EVQLVQSGAEVKKPGASVKVSCKASGYTFTSYGISWVRQAPGQGLEWMGWISAYNGNTNYAQKLQGRVTMTTDTSTSTAYMELRSLRSDDTAVYYCASSKEKATYYYGMDVWGQGTTVTVSS
VL: QAVVLQEPSLSVSPGGTVTLTCGLSSGSVSTNYYPSWYQQTPGQAPRTLIYYTNTRSSDVPERFSGSIVGNKAALTITGAQPDDESVYFCLLYLGAGIWVFGGGTKLTVLG
B14: 001S-A04 mutant VLV10A (Fab, V domains shown)
VH: EVQLVQSGAEVKKPGASVKVSCKASGYTFTSYGISWVRQAPGQGLEWMGWISAYNGNTNYAQKLQGRVTMTTDTSTSTAYMELRSLRSDDTAVYYCASSKEKATYYYGMDVWGQGTTVTVSS
VL: QAVVLQEPSLSVSPGGTVTLTCGLSSGSVSTNYYPSWYQQTPGQAPRTLIYYTNTRSSDVPERFSGSIVGNKAALTITGAQPDDESVYFCLLYLGRGIWAFGGGTKLTVLG
B15: 001S-A04 mutant VLY3A (Fab, V domains shown)
VH: EVQLVQSGAEVKKPGASVKVSCKASGYTFTSYGISWVRQAPGQGLEWMGWISAYNGNTNYAQKLQGRVTMTTDTSTSTAYMELRSLRSDDTAVYYCASSKEKATYYYGMDVWGQGTTVTVSS
VL: QAVVLQEPSLSVSPGGTVTLTCGLSSGSVSTNYYPSWYQQTPGQAPRTLIYYTNTRSSDVPERFSGSIVGNKAALTITGAQPDDESVYFCLLALGRGIWVFGGGTKLTVLG
B16: 004S-D08 (Fab, V domains shown)
VH: QVQLVQSGAEVKKPGSSVKVSCKASGYTFTYRYLHWVRQAPGQGLEWMGGIIPIFGTANYAQKFQGRVTITADESTSTAYMELSSLRSEDTAVYYCATHDSSGYYSFDYWGQGTLVTVSS
VL: not shown
B17: 004S-C09 (Fab, V domains shown)
VH: QVQLVQSGAEVKKPGASVKVSCKASGYTFTNNFMHWVRQAPGQGLEWMGGFDPEDGETIYAQKFQGRVTMTRDTSTSTVYMELSSLRSEDTAVYYCARVGRGYSFDYWGQGTLVTVSS
VL: not shown

Key:
[1] = target: T1, Fzd1 cysteine rich domain (CRD), C-terminally biotinylated (human, UniProt Q9UP38 101-230); test: BLI; **=Kd 100-2000 nM
Description: (§1) Binding kinetics of antibody fragments to a variety of Fzd cysteine rich domain (CRD) protein targets (Fzd1, Fzd2, Fzd3, Fzd4, Fzd5, Fzd6, Fzd7, Fzd8, Fzd9 and/or Fzd10 CRDs) was determined by bio-layer interferometry (BLI) using Octet Red 96 (PALL ForteBio, Fremont, CA) instruments at 30° C., 1000 rpm with streptavidin (SA) biosensors. C-terminal biotinylated Fzd CRD recombinant protein was diluted to 20 nM in the running buffer (PBS, 0.05% Tween-20, 0.5% BSA, pH 7.2) and captured to the SA biosensor until coupling length reached 0.2 nm. Following capture of the Fzd CRD, the SA biosensor with captured biotinylated-Fzd CRD was dipped into wells containing the relevant antibody fragment at […] (0, 1.37, 4.12, 12.4, 37, 111.1, 333.3, 1000 nM) in running buffer, plus a well with only running buffer as a reference channel. […] was determined by global fitting, 1:1 binding model according to manufacturer recommended settings.
(§2) Table 1B provides clone IDs, the sequence identifier number of the antibody heavy chain fragment and/or light chain fragment, if present, for illustrative clones. In certain embodiments, the Fzd binding domain is an Fab or was derived from an Fab, so the heavy chain of Table 1B includes VH and CH1 sequence, but not CH2 or CH3 sequences. In certain embodiments, the Fzd binding domain is a VHH or sdAb® or was derived from a VHH or sdAb, so Table 1B includes the VHH domain. […] The Kd values were determined by BLI as described above. Blank entries denote that the binding to the specific Fzd receptor has not yet been determined. The entry of "n.b." indicates no binding.

[2] = target: T1, Fzd1 cysteine rich domain (CRD), …; test: BLI; *=Kd <=100 nM
Description: as §1
One antibody fragment, clone 001S-A04, was selected for alanine-scanning mutagenesis of CDRs, and the respective Fzd1 binding affinities of the various mutants were determined by Octet BLI as described in Example 1.

[3] = target: T1, Fzd1 cysteine rich domain (CRD), …; test: BLI
Description: as §1, §2

[4] = target: Fzd2 cysteine rich domain (CRD), C-terminally biotinylated (human, UniProt Q14332 24-155); test: BLI
Description: as §1, §2

Row | Binder | KD [2] | also measured
1 | B1 |  | Kd [1]: 100 to 2000 nM
2 | B2 |  | Kd [1]: 100 to 2000 nM
3 | B3 | ≤ 100 nM | 
4 | B4 | ≤ 100 nM | 
5 | B5 | ≤ 100 nM | 
6 | B6 | ≤ 100 nM | 
7 | B7 | ≤ 100 nM | 
8 | B8 | ≤ 100 nM | 
9 | B9 | ≤ 100 nM | 
10 | B10 | ≤ 100 nM | 
11 | B11 | ≤ 100 nM | 
12 | B12 | ≤ 100 nM | 
13 | B13 | ≤ 100 nM | 
14 | B14 | ≤ 100 nM | 
15 | B15 | ≤ 100 nM | 
16 | B16 |  | binding result [3]: no binding (tested: 1000 nM); binding result [4]: no binding (tested: 1000 nM)
17 | B17 |  | binding result [3]: no binding (tested: 1000 nM); binding result [4]: no binding (tested: 1000 nM)
